Like-named read-outs stand apart in the source and are kept apart here.
What was measured:
[1] = biological target: T1, VP40-WT (Δ43, HIS-tagged), purified RNA-free monomer/dimer (UniProt Q05128 44-326)
[2] = biological target: T1, VP40-WT (Δ43, HIS-tagged), purified …; test: blue native gel
[3] = biological target: T1, VP40-WT (Δ43, HIS-tagged), purified …; test: 30 mM NaCl
[4] = biological target: T1, VP40-WT (Δ43, HIS-tagged), purified …; test: native MS

Row | Binder | binding result [1] | also measured
1 | AGGGG (ssDNA) [AGGGG DNA] | binds | –
2 | AAAAAAAAAAAAAAAAAAAAAAAAAAAAAAAAAAAA (ssDNA) [A36 DNA] | – | binding result [2]: no binding
3 | UACAUUCCCAGCCUUUGUAGUGUUUUCGCCAAGCA (ssRNA) [HSP RNA] | – | binding result [3]: binds
4 | TACATTCCCAGCCTTTGTAGTGTTTTCGCCAAGCA (ssDNA) [HSP DNA] | binds | –
5 | TAAAATAATTTTATTGAAT (ssDNA) [S2R DNA] | – | binding result [4]: binds
6 | CAGCCTTTGTAGTGTTTT (ssDNA) [HSP18 DNA] | binds | –
